Tests used:
[1] = molecular target: T1, mouse FcγRIII extracellular domain, C-terminal His tag (mouse, UniProt P08508 31-215); test: SPR (Biacore T200)
T1 construct: Whole entry named; also called mFcγRIII; mFcgRIII
T1 chain: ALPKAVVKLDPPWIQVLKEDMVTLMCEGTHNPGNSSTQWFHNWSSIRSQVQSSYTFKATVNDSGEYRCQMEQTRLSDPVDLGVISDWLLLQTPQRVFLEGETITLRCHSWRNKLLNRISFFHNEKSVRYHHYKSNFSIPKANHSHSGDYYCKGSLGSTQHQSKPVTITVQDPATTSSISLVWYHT

[2] = molecular target: T2, mouse FcγRII extracellular domain, C-terminal His tag (mouse, UniProt P08101 30-210); test: SPR (Biacore T200); KD of H237-mIgG1/MRAL-k0 / KD of variant
T2 construct: Whole entry named; also called mFcγRII; mFcgRII
T2 sequence: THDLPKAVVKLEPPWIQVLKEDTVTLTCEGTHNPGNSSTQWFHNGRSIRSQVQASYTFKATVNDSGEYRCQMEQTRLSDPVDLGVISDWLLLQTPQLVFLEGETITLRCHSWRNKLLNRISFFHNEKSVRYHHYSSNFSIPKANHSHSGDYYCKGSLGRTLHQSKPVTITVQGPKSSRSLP

mouse FcγRII [3] = molecular target: T3, mouse FcγRII (mouse, UniProt P08101 30-210); test: told of the L104-mk1 form; SPR was run on the MRAL-k0 form
T3 construct: also called mFcγRII; mFcgRII
T3 sequence: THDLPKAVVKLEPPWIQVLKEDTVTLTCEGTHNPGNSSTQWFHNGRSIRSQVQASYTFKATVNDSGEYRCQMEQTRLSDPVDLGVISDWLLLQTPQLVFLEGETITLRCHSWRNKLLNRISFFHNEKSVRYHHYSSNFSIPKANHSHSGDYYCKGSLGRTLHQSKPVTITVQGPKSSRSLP

mouse FcγRII [4] = molecular target: T3, mouse FcγRII; test: told of the L104-mk1 form; SPR (Table 28) was run on the MRAL-k0 form

B1: H237-MB881/MRAL-k0 (antibody, mouse IgG1, kappa)
heavy: QVQLQESGPGLVKPSETLSLTCAVSGHSISHDHAWSWVRQPPGEGLEWIGFISYSGITNYNPSLQGRVTISRDNSKNTLYLQMNSLRAEDTAVYYCARSLARTTAMDYWGEGTLVTVSSAKTTPPSVYPLAPGSAAQTNSMVTLGCLVKGYFPEPVTVTWNSGSLSSGVHTFPAVLQSDLYTLSSSVTVPSSTWPSETVTCNVAHPASSTKVDKKIVPRDCGCKPCICEVNEEELVFIFPPKPKDVLTITLTPKVTCVVVDISKDDPEVQFSWFVDDVEVHTAQTQPREEQFNSTFRSVSELPIMHQDWLNGKEFKCRVNSAAFPAPIEKTISKTKGRPKAPQVYTIPPPKEQMAKDKVSLTCMITDFFPEDITVEWQWNGQPAENYKNTQPIMDTDGSYFVYSKLNVQKSNWEAGNTFTCSVLHEGLHNHHTEKSLSHSPGK
light: not shown
notes: copies: 2 + 2
[1]
  binding result: no binding
[2]
  relative mFcγRII-binding activity (mIgG1 = 1): 0.23 fold

B2: H237-MB367/L104-mk1 (antibody, mouse IgG1, kappa)
heavy: QVQLQESGPGLVKPSETLSLTCAVSGHSISHDHAWSWVRQPPGEGLEWIGFISYSGITNYNPSLQGRVTISRDNSKNTLYLQMNSLRAEDTAVYYCARSLARTTAMDYWGEGTLVTVSSAKTTPPSVYPLAPGSAAQTNSMVTLGCLVKGYFPEPVTVTWNSGSLSSGVHTFPAVLQSDLYTLSSSVTVPSSTWPSETVTCNVAHPASSTKVDKKIVPRDCGCKPCICEANEVEDVFIFPPKPKDVLTITLTPKVTCVVVDISKDDPEVQFSWFVDDVEVHTAQTQPREEQFNSTFRSVSELPIMHQDWLNGKEFKCRVNSAAFPAPIEKTISKTKGRPKAPQVYTIPPPKEQMAKDKVSLTCMITDFFPEDITVEWQWNGQPAENYKNTQPIMDTDGSYFVYSKLNVQKSNWEAGNTFTCSVLHEGLHNHHTEKSLSHSPGK
light: DIQMTQSPSSLSASVGDSVTITCQASTDISSHLNWYQQKPGKAPELLIYYGSHLLSGVPSRFSGSGSGTDFTFTISSLEAEDAATYYCGQGNRLPYTFGQGTKVEIERADAAPTVSIFPPSSEQLTSGGASVVCFLNNFYPKDINVKWKIDGSERQNGVLNSWTDQDSKDSTYSMSSTLTLTKDEYERHNSYTCEATHKTSTSPIVKSFNRNEC
notes: the text speaks of it for this form; copies: 2 + 2
Mouse FcγRII [3]
  binding result: binds

B3: H237-MB477/L104-mk1 (antibody, mouse IgG1, kappa)
heavy: QVQLQESGPGLVKPSETLSLTCAVSGHSISHDHAWSWVRQPPGEGLEWIGFISYSGITNYNPSLQGRVTISRDNSKNTLYLQMNSLRAEDTAVYYCARSLARTTAMDYWGEGTLVTVSSAKTTPPSVYPLAPGSAAQTNSMVTLGCLVKGYFPEPVTVTWNSGSLSSGVHTFPAVLQSDLYTLSSSVTVPSSTWPSETVTCNVAHPASSTKVDKKIVPRDCGCKPCICEPNEVEDVFIFPPKPKDVLTITLTPKVTCVVVDIAKDDPEVQFSWFVDDVEVHTAQTQPREEQFNSTFRSVSELPIMHQDWLNGKEFKCRVNSAAFPAPIEKTISKTKGRPKAPQVYTIPPPKEQMAKDKVSLTCMITDFFPEDITVEWQWNGQPAENYKNTQPIMDTDGSYFVYSKLNVQKSNWEAGNTFTCSVLHEGLHNHHTEKSLSHSPGK
light: DIQMTQSPSSLSASVGDSVTITCQASTDISSHLNWYQQKPGKAPELLIYYGSHLLSGVPSRFSGSGSGTDFTFTISSLEAEDAATYYCGQGNRLPYTFGQGTKVEIERADAAPTVSIFPPSSEQLTSGGASVVCFLNNFYPKDINVKWKIDGSERQNGVLNSWTDQDSKDSTYSMSSTLTLTKDEYERHNSYTCEATHKTSTSPIVKSFNRNEC
notes: the text gives the rounded value for this form; copies: 2 + 2
Mouse FcγRII [4]
  relative mFcγRII-binding activity (H237-mIgG1/L104-mk1 = 1): ~200 fold

B4: H237-MB492/L104-mk1 (antibody, mouse IgG1, kappa)
heavy: QVQLQESGPGLVKPSETLSLTCAVSGHSISHDHAWSWVRQPPGEGLEWIGFISYSGITNYNPSLQGRVTISRDNSKNTLYLQMNSLRAEDTAVYYCARSLARTTAMDYWGEGTLVTVSSAKTTPPSVYPLAPGSAAQTNSMVTLGCLVKGYFPEPVTVTWNSGSLSSGVHTFPAVLQSDLYTLSSSVTVPSSTWPSETVTCNVAHPASSTKVDKKIVPRDCGCKPCICEPNEVEDVFIFPPKPKDVLTITLTPKVTCVVVDISKDDPEVQFSWFVDDVEVHTAQTQPREEQFNSTFRSVSELPIMHQDWLNGKEFKCRVDSAAFPAPIEKTISKTKGRPKAPQVYTIPPPKEQMAKDKVSLTCMITDFFPEDITVEWQWNGQPAENYKNTQPIMDTDGSYFVYSKLNVQKSNWEAGNTFTCSVLHEGLHNHHTEKSLSHSPGK
light: DIQMTQSPSSLSASVGDSVTITCQASTDISSHLNWYQQKPGKAPELLIYYGSHLLSGVPSRFSGSGSGTDFTFTISSLEAEDAATYYCGQGNRLPYTFGQGTKVEIERADAAPTVSIFPPSSEQLTSGGASVVCFLNNFYPKDINVKWKIDGSERQNGVLNSWTDQDSKDSTYSMSSTLTLTKDEYERHNSYTCEATHKTSTSPIVKSFNRNEC
notes: as for B3
Mouse FcγRII [4]
  relative mFcγRII-binding activity (H237-mIgG1/L104-mk1 = 1): ~620 fold
